Test [1] deals with Zot binding sites (surface receptor) on human monocytes/macrophages (CD14+) (human). The test is described as follows: 4-color flow cytometry, 40 µg/ml Zot-FITC, 30 min at 37°C, CD14+ gate.
For test [2] the target is unchanged. The test is described as follows: real-time flow cytometry at 37°C, Zot-FITC 40 µg/ml, CD14 gate. (A flow cytometer gives signals particle by particle.)
Test [3] has the same target. The test is described as follows: flow cytometry, increasing concentrations of Zot-FITC on human PBMC.
Test [4] concerns the target Zot binding sites on human T lymphocytes (CD3+) (human). Described as above.
Test [5] deals with Zot binding sites (surface receptor) on human monocytes/macrophages (CD14+) (human). The experiment in a line: flow cytometry, MFI converted with Quantum 26 MESF kit, saturation conditions.
Test [6] deals with Zot binding sites on human T lymphocytes (CD3+) (human). The description is as above.
Test [7] deals with Zot binding sites (surface receptor) on human monocytes/macrophages (CD14+) (human). The test is described as follows: flow cytometry, MESF calibration, several volunteers.
Test [8] has as its target Zot binding sites on human T lymphocytes (CD3+) (human). Described as above.
Test [9] shares this target. The experiment in a line: real-time flow cytometry at 37°C, Zot-FITC 40 µg/ml, CD3 gate.
Test [10] has as its target Zot binding sites (surface receptor) on human monocytes/macrophages (CD14+) (human). The test is described as follows: flow cytometry; […] (10 µl); […].
The target in test [11] is Zot binding sites on human T lymphocytes (CD3+) (human). The experiment in a line: flow cytometry; […] (10 µl); […].
Test [12] addresses Zot binding sites (surface receptor) on human monocytes/macrophages (CD14+) (human).

“And” between values parts separate entries of the source, which are not always exact repeats. Identical values can stand only once. Where only a bound is given, the exact number is not on record here.

The results in this text go back to patent EP1113813B1.

For the substance “Zot-FITC (6xHis-Zot fusion protein conjugated to fluorescein isothiocyanate, Examples 4-7) (from UniProt P38442 1-399) (ligand)”, the fold binding against T or B lymphocytes in [1] is 5 fold and 8 fold. The time to reach equilibrium in [2] and in [9] was below 2 min in each case. For the same substance, the concentration at which saturation is reached in test [3] and in test [4] was 0.5 pM in each case. Moreover, the Zot-binding sites/cell came out at 106000 sites/cell in test [5] and 9000 sites/cell in test [6]. Further, the Zot binding sites/cell (mean of several volunteers) was determined as 105000 sites/cell in test [7] and 10700 sites/cell in test [8].
On to “purified Zot (cleaved from MBP-Zot with Factor Xa, Example 1) (from UniProt P38442 9-399) (ligand)”, for which the percent decrease of Zot-FITC binding in test [10] and in test [11] was 33% each time.
For “6xHis-Zot fusion protein (purified Zot, unlabeled) (from UniProt P38442 1-399) (ligand)”, the percent suppression of Zot-FITC mean fluorescence intensity in test [12] was 24% and 43%.
